Experimental data reported in publication PMC11077590, “The concerted action of SEPT9 and EPLIN modulates the adhesion and migration of human fibroblasts” (Life Science Alliance, 2024).
One block for each binder: values may come before it.

Experiments:
[1] = biological target: T1, GST-EPLIN (full length, isoform alpha) (UniProt Q9UHB6-2 1-599); test: pull-down; GST fusion from E. coli extract held on glutathione Sepharose beads, washed with PBS, blocked with 1.5 μM BSA; purified His6-tagged protein added at 1.5 μM for 30 min in PBS with 0.1 mM Zn2+; eluted with 10 mM reduced glutathione; SDS-PAGE and Western blot; conditions: both partners purified
T1 construct: EPLIN (epithelial protein lost in neoplasm, LIMA1 product), isoform alpha, full length; ORF amplified from Addgene plasmid #40928; numbers count on: isoform alpha; Vector pGEX2T; All EPLIN constructs derive from plasmid #1 (isoform alpha); also called epithelial protein lost in neoplasm; LIMA1 product

[2] = biological target: T2, His6-SEPT9 ΔNΔC (G domain, aa 295-567) (UniProt Q9UHD8 295-567); test: as above; conditions: both partners purified
T2 construct: also called ΔNΔC-SEPT9; source: E. coli BL21DE3, purified (HisTrap IMAC, buffered in PBS by PD10)
T2 sequence (looked up): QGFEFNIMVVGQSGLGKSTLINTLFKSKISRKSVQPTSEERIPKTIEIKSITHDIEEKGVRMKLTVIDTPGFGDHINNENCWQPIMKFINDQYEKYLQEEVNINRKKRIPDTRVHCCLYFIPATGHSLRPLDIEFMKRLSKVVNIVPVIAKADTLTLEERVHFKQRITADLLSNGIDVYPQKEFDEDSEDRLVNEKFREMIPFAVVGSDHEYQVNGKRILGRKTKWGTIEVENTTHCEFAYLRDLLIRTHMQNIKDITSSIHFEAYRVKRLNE

T1 sequence (Q9UHB6 161-759): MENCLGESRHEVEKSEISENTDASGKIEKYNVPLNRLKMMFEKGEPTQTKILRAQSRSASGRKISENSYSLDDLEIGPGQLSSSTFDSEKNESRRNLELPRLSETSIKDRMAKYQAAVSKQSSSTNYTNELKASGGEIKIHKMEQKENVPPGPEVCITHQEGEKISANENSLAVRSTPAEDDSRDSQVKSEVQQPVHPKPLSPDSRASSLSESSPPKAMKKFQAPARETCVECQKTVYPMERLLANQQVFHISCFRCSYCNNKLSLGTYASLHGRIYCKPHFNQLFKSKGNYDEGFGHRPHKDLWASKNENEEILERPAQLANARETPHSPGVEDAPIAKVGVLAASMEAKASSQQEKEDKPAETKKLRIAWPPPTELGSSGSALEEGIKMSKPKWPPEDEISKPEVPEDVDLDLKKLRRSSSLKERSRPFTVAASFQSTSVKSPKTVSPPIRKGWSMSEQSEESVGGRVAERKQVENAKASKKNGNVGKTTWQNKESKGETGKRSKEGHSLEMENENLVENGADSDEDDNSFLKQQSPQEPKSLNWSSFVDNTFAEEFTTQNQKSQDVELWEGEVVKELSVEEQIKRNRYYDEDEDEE

binding result [1]: binds
B1: His6-SEPT9 (full length, SEPT9i1) (natural protein, UniProt Q9UHD8 1-586, looked up)
chain: MKKSYSGGTRTSSGRLRRLGDSSGPALKRSFEVEEVETPNSTPPRRVQTPLLRATVASSTQKFQDLGVKNSEPSARHVDSLSQRSPKASLRRVELSGPKAAEPVSRRTELSIDISSKQVENAGAIGPSRFGLKRAEVLGHKTPEPAPRRTEITIVKPQESAHRRMEPPASKVPEVPTAPATDAAPKRVEIQMPKPAEAPTAPSPAQTLENSEPAPVSQLQSRLEPKPQPPVAEATPRSQEATEAAPSCVGDMADTPRDAGLKQAPASRNEKAPVDFGYVGIDSILEQMRRKAMKQGFEFNIMVVGQSGLGKSTLINTLFKSKISRKSVQPTSEERIPKTIEIKSITHDIEEKGVRMKLTVIDTPGFGDHINNENCWQPIMKFINDQYEKYLQEEVNINRKKRIPDTRVHCCLYFIPATGHSLRPLDIEFMKRLSKVVNIVPVIAKADTLTLEERVHFKQRITADLLSNGIDVYPQKEFDEDSEDRLVNEKFREMIPFAVVGSDHEYQVNGKRILGRKTKWGTIEVENTTHCEFAYLRDLLIRTHMQNIKDITSSIHFEAYRVKRLNEGSSAMANGMEEKEPEAPEM
notes: derived from plasmid #5 (EGFP-SEPT9, gift of E. Spiliotis); pES is an in-house pET15A-based plasmid for His6-tagged proteins; also called His-SEPT9; purified SEPT9; source: E. coli BL21DE3, purified (HisTrap IMAC, buffered in PBS by PD10)

binding result [2]: binds
B2: GST-EPLIN LIM (aa 228-288) (domain or fragment)
chain: not shown
notes: EPLIN (LIMA1 product), isoform alpha, residues 228-288, the LIM domain; Vector pGEX2T; also called isolated LIM domain of EPLIN; plasmid #7
